Laboratory results published in patent US20260217846A1 (University of Texas, published 2026).

Target: T1, recombinant human 4-1BB (human, UniProt Q07011 24-186, limits assumed)
T1 construct: The ELISA antigen is called only 'recombinant human 4-1BB'; also called CD137; TNFSFR
Experiment: ELISA titration on recombinant human 4-1BB

Row | binding result | Binder
1 | binds | Clone 49A 4-1BB antibody (IgG1) (antibody, V domains shown, Mouse hybridoma antibody, IgG1) VH: VKLQQSGPELVKPGASVKISCKASGYTFTDYYMNWVKESHGKSLEWIGDINPNNGGSTYYNQKFKGKATLTVEKSSSTAFMELRSLTSEDSAVYYCARSLYGSTYYFDYWGQGTPLTVSS VL: DIVLTQSPASLAVSLGQRATISCKASQSVDYDGDSYMNWYQQKPGQPPKLLIYAASNLESGIPARFSGSGSGTDFTLNIHPVEEEDAGTYYCQQSNDDPWTFGGGTKLEIK
2 | binds | Clone 138 4-1BB antibody (IgG2b) (antibody, V domains shown, Mouse hybridoma antibody, IgG2b) VH: VQLQESGGGLVKPGGSLKLSCAASGFTFSDYGMHWVRQAPEKGLEWVAYISSGSNSIYYADTVTGRFTISRDNAKNTLFLQMTSLRSEDTAMYYCASNNGYFYFDYWGQGTTLTVSS VL: IVITQSPAILSASPGEKVTMTCRASSSVSYMHWYQQKPGSSPKPWIYATSNLASGVPARFSGSGSGTSYSLTVSRVEAEDAATYYCQQWSSDPFTFGSGTKLEIK
3 | binds | Clone 54 4-1BB antibody (IgG2a) (antibody, V domains shown, Mouse hybridoma antibody, IgG2a; also called Curranlumab; hybridoma clone 271-54 41-BB) VH: EFQLQQSGPELVKPGASVKISCKASGYSFTDYNMNWVKQSNGKSLEWIGVINPNYGTTSYNQKFKGKATFTVDQSSSTAYMQLNSLTSEDSAVYYCARSPVEDYFDYWGQGTTLTVSS VL: ENVLTQSPAIMSASPGEKVTMTCRARSSVSSSYLHWYQQKSGASPKLWIYSTSNLASGVPARFSGSGSGTSYSLTISSVEAEDAATYYCQQYSGYPLITFGAGTKLELKR
